Assay: yeast display, Sf9 membrane polyspecificity reagent, FACS + sequencing; frameworks hold sequencing errors
Procedure, shortened: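 In a synthetic yeast display library (Saccharomyces cerevisiae BJ5465), nanobody expression was induced with galactose for 36–48 hours. FACS gates were set low and high (top ~1%) using anti-HA fluorescence for expression and streptavidin fluorescence for binding of the Sf9 membrane reagent. Each polyreactivity label is drawn from the gate of origin.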

Q: For “QVQLVESGGGLVQAGGSLRLSCAASGRIFDYYAMGWYRQAPGNERELVAAINSGGSTYYADSVKGRFTISRDNAKNTVSLQMNSLKPEDTAVYYCNALRKSLRGGDYWGQGTQVTVSS”, which “polyreactivity (PSR sort gate)” value is on record?
A: high polyreactivity

Q: Which “polyreactivity (PSR sort gate)” value does the source give for “QVQLVESGGGLVQAGGSLRLSCAASGRIFDYYTMGWSRQAPGKVRELVAAISSGGRTYYADSVKGRFTISRDNAKNTVYLQMNSLKPEDTAVYYCNALDTRHTYTYTGGKRFPYDHWGQGTQVTVSS” here?
A: low polyreactivity

Q: For “QVQLVESGGGLVQAGGSLRLSCAASGRIFDYYYMGWYRQAPGKERELVAAISNGGSTYYADSVKGRFTISRDNAKNTVYLQMNSLKPEDTAVYYGAAVISFSGYDYYYWGQGTQVTVSS”, which “polyreactivity (PSR sort gate)” value is on record?
A: high polyreactivity

Q: With “QVQLVESGGGLVQAGGSLRLSCAASGRIFEDYAMGWYRQAAGKERELVARISSGDSTNYADSVKGRFTISRDNAKNTVYLQMNSLKPVVTAVYYCAAEGGVQEFDYWGQGTQVTVSS” as the sequence, how does the “polyreactivity (PSR sort gate)” value read?
A: low polyreactivity

Q: Which “polyreactivity (PSR sort gate)” value does the source give for “QVQLVESGGGLVQAGGSLRLSCAASGRIFEINARGWYRQAPGKERELVAAITRSGGSTYYADSVKGRFTISRDNAKNTVYFQMNSLTPEDTAVYYCAARGRYWYSRYYSWGQGTQVTVSS” here?
A: high polyreactivity

Q: With “QVQLVESGGGLVQAGGSLRLSCAASGRIFEPYAMGWYRQAPGKERELVAAITSGGSTDYADSVKGRFTISRDNAKNTVYLQMNSLKPEDTAVYYCAAETVWRLDYWGQGTQVTVSS” as the sequence, how does the “polyreactivity (PSR sort gate)” value read?
A: low polyreactivity

Q: For “QVQLVESGGGLVQAGGSLRLSCAASGRIFERNAMGGDRQAPGKEREFVAASSWSGGSTHYADSVKGRFTSSRDNAKNTVYVQMNSLKPEDTAVYFCAARRRKAGRPSDRYYYWGQGTQVTVSS”, which “polyreactivity (PSR sort gate)” value is on record?
A: high polyreactivity

Q: With “QVQLVESGGGLVQAGGSLRLSCAASGRIFERYAMGWYRQAPGKERELVAGISISGGGTYYADSVKGRFTISRDNAKNTVYLEMNSLKPEDTAVYYCAATFPREDYGYWGQGTQVTVSS” as the sequence, how does the “polyreactivity (PSR sort gate)” value read?
A: low polyreactivity

Q: With “QVQLVESGGGLVQAGGSLRLSCAASGRIFERYAMGWYRQAPGKERELVAGISISGGGTYYADSVKGRFTISRDNAKNTVYLQMNSLKPEDTAVYYCAATFPREEYGYWGQGTQVTVSS” as the sequence, how does the “polyreactivity (PSR sort gate)” value read?
A: low polyreactivity

Q: Which “polyreactivity (PSR sort gate)” value does the source give for “QVQLVESGGGLVQAGGSLRLSCAASGRIFESYAMGWYRQAPGKERELVAAISSGGGTTYYADSVKGRFTISRDNAKNTVYLQMNSLKPEDTAVYYCAAGPWFYYWGQGTQVTVSS” here?
A: low polyreactivity

Q: For “QVQLVESGGGLVQAGGSLRLSCAASGRIFEWYAMGWYRQAPGKEREFVARITIGGRTYYADSVKGRFTISRDNAKNTVYFQMNSVKREDTAVYYCNAPYAWARPYIVSSTYDYWGQGTQVTVSS”, which “polyreactivity (PSR sort gate)” value is on record?
A: high polyreactivity

Q: With “QVQLVESGGGLVQAGGSLRLSCAASGRIFFHNAMGWYRQARGKERELVAAISYSGGSTYYADSVKGRFTIARDNAKNTVYLQMNSLKPEDTAVYYCNRYGNSYYFPPGPLYNYWGQGTQVTVSS” as the sequence, how does the “polyreactivity (PSR sort gate)” value read?
A: high polyreactivity

Q: Which “polyreactivity (PSR sort gate)” value does the source give for “QVQLVESGGGLVQAGGSLRLSCAASGRIFFIYAMGWYRQAPGKERELVAAITWRGGRTYYADSVKGRFTISRDNAKNTVYLQMNSLKPEDTAVYYCAADYRDSYLFYYWGQGTQVTVSS” here?
A: high polyreactivity

Q: Which “polyreactivity (PSR sort gate)” value does the source give for “QVQLVESGGGLVQAGGSLRLSCAASGRIFFIYVMGWYRQAPGKERELVAGITRGGSTNYADSVKGRFTISRDNAKNTVYLQMNSLKPEDTAVYYCAAAVLSYRHAHAGYYYGKGDYWGQGTQVTVSS” here?
A: high polyreactivity

Q: With “QVQLVESGGGLVQAGGSLRLSCAASGRIFFNAMGWYRQAPGKEREFVAAIRTSGGTTYYADSVKGRFTISRDNAKNTVYLQMNSLKPEDTAVYYCAAWRWYYPVRNRAQYVRGDYWGQGTQVTVSS” as the sequence, how does the “polyreactivity (PSR sort gate)” value read?
A: high polyreactivity

Q: Which “polyreactivity (PSR sort gate)” value does the source give for “QVQLVESGGGLVQAGGSLRLSCAASGRIFFPNAMGWYRQAPGKERELVAAITSGSSTYYADSVKGRFTISRDNAKNTVYLQMNSLKPEDTAVYYCAARGRRGEAYRSVYYWGQGTQVTVSS” here?
A: high polyreactivity

Q: Which “polyreactivity (PSR sort gate)” value does the source give for “QVQLVESGGGLVQAGGSLRLSCAASGRIFFRNAMGWYRQAPGKERELVAVINTGGSTNYADSVKGRFTISRDNAKNTVFLQMNSLKPEDTAVYYCAVDRASRRTYNQYGFWGQGTQVTVSS” here?
A: high polyreactivity

Q: With “QVQLVESGGGLVQAGGSLRLSCAASGRIFFRNVMGWYRQAPGKERELVATITSGGRTYYADSVKGRFTISRDNAKNTVYLQMNSLKPEDTAVYYCAAKRYLHRREYWGQGTQVTVSS” as the sequence, how does the “polyreactivity (PSR sort gate)” value read?
A: high polyreactivity

Q: With “QVQLVESGGGLVQAGGSLRLSCAASGRIFFTKAMGWYRQAPGKERELVAAISKSGARTYYADSVKGRFTISRDNAKNTVYLQMNSLKPEDTAVYYCAADVSVSGYYYWGQGTQVTVSS” as the sequence, how does the “polyreactivity (PSR sort gate)” value read?
A: high polyreactivity

Q: With “QVQLVESGGGLVQAGGSLRLSCAASGRIFFTNAMGWYRQAPGKEREFVAGISFSGDGRTYYADSVKGRFTISRDNAKNTVYLQMNSLKPEDTAVYYCAAPHRSRTHELDYWGQGTQVTVSS” as the sequence, how does the “polyreactivity (PSR sort gate)” value read?
A: low polyreactivity

Q: With “QVQLVESGGGLVQAGGSLRLSCAASGRIFFTNAMGWYRQAPGKERELVATISSSDGSTYYADSVTGRFTISRDNAKNTVYLQMNSLKPEDTAVYYCAARYRSTFYNTYDRVYWGQGTQVTVSS” as the sequence, how does the “polyreactivity (PSR sort gate)” value read?
A: high polyreactivity

Q: With “QVQLVESGGGLVQAGGSLRLSCAASGRIFFTYAMGWYRQAPGKERELVASITGSGGSTYYADSVKGRFTISRDNAKNTVYLQMNSLKPEDTAVYYCAAALFRRQLYRKFYYWGQGTQVTVSS” as the sequence, how does the “polyreactivity (PSR sort gate)” value read?
A: low polyreactivity

Q: For “QVQLVESGGGLVQAGGSLRLSCAASGRIFFVNTMGWYRQAPGNERELVATLSWSGGSTYYADSVKGRFTISRDNAKNTVYLQMNSLKPEDTAVYYCAAVGYTTYRRYDYWGQGTQVTVSS”, which “polyreactivity (PSR sort gate)” value is on record?
A: low polyreactivity

Q: Which “polyreactivity (PSR sort gate)” value does the source give for “QVQLVESGGGLVQAGGSLRLSCAASGRIFFWYARGWYRQAPGKEWELVAGITSGGSTNYADSVKGRFTISRDNAKNTVYLQMNSLKPEDTAVYYCAKRSYRTHTYDYWGQGTQVTVSS” here?
A: low polyreactivity

Q: Which “polyreactivity (PSR sort gate)” value does the source give for “QVQLVESGGGLVQAGGSLRLSCAASGRIFFYNAMGWYRQAPGKERELVATINWSGGSTYYADSVKGRFTISRDYAKNTVYLQMNSLKPEDTAVYYCNALRASTTALWGGYWGQGTQVTVSS” here?
A: high polyreactivity

Q: With “QVQLVESGGGLVQAGGSLRLSCAASGRIFFYNVMGWYRQAPGKERELVASIRWSGSGTYYADSVKGRFTISRDDAKNTVYLQMNCLKPEETAVYYCAVLGRVGYGVYPVDYWGQGTQVTVSS” as the sequence, how does the “polyreactivity (PSR sort gate)” value read?
A: high polyreactivity

Q: Which “polyreactivity (PSR sort gate)” value does the source give for “QVQLVESGGGLVQAGGSLRLSCAASGRIFFYYAMGWYRQAPGTERELVAAISKSGGRTYYADSVKGRFTISRDNAKNTVYLQMNSLKPEDTAVYYCAAYSAHDSDYWGQGTQVTVSS” here?
A: high polyreactivity

Q: Which “polyreactivity (PSR sort gate)” value does the source give for “QVQLVESGGGLVQAGGSLRLSCAASGRIFGANAMGWYRQAPGKERELVAAIDDGVSTNYADSVKGRFTISRDNAKNTVYLQMNSLKPEDTAVYYCAKRSFVGGRGRDSDYWGQGTQVTVSS” here?
A: low polyreactivity

Q: With “QVQLVESGGGLVQAGGSLRLSCAASGRIFGANAMGWYRQAPGKERELVAAISGSGGRTYYADSVKGRFTISRDNAKNTVYLQMNSLKPEDTAVYYCAAGRPTYSRYFGFEYWGQGTQVTVSS” as the sequence, how does the “polyreactivity (PSR sort gate)” value read?
A: high polyreactivity

Q: For “QVQLVESGGGLVQAGGSLRLSCAASGRIFGAYAMGWYRQAPGKERELVAAISSGGSTNYADSVKGRFTISRDNAKNTVYLQMNSLKPEDTAVYYCAAERLYSWYYYKYNSEFYYWGQGTQVTVSS”, which “polyreactivity (PSR sort gate)” value is on record?
A: low polyreactivity

Q: Which “polyreactivity (PSR sort gate)” value does the source give for “QVQLVESGGGLVQAGGSLRLSCAASGRIFGAYAMGWYRQAPGKERELVAAITSRGGNTYYADSVKGRFTISRDNAKNTVYLQMNSLKPEDTAVYYCAARHDKLRQYYVGQSAFDYWGQGTQVTVSS” here?
A: low polyreactivity

Q: For “QVQLVESGGGLVQAGGSLRLSCAASGRIFGAYTMGWYRQAPGKERELVAVISSRGTDTYYADSVKGRFTISRDNAKNTVYLQMNSLKPEDTAVYYCAKRWWYTTSPRRSGDYWGQGTQVTVSS”, which “polyreactivity (PSR sort gate)” value is on record?
A: high polyreactivity

Q: For “QVQLVESGGGLVQAGGSLRLSCAASGRIFGDYAMGWYRKAPGKERELLAAISWSDGSTYYADSVKGRFTISRDNAKNTVYLQMNSLKPEDTAVYYCAAYGWGYRYVDVVVSDFYYWGQGTQVTVSS”, which “polyreactivity (PSR sort gate)” value is on record?
A: low polyreactivity

Q: Which “polyreactivity (PSR sort gate)” value does the source give for “QVQLVESGGGLVQAGGSLRLSCAASGRIFGDYAMGWYRQAPGKERELVADITWSGGSTYYADSVKGRVTISRDNAKHTVYLQMNSLKPEDTAVYYCNADVWFYYTFDYWGQGTQVTVSS” here?
A: low polyreactivity

Q: Which “polyreactivity (PSR sort gate)” value does the source give for “QVQLVESGGGLVQAGGSLRLSCAASGRIFGFNAMGWYRQATGKERELVAAISWRGGSTYYADSVKGRFTISRDNAKNTVYLQMNSLKPEDTAVYYCAAGRYLRSGFGEGYYWGQGTQVTVSS” here?
A: high polyreactivity

Q: Which “polyreactivity (PSR sort gate)” value does the source give for “QVQLVESGGGLVQAGGSLRLSCAASGRIFGFYALGWYRQAPGKEREFVASISVRGASTYADSVKGRFTISRDNAKNTVYLQMYSLKPEDTAVYYCNKAVANDDGLEYWGQGTQVTVSS” here?
A: high polyreactivity

Q: For “QVQLVESGGGLVQAGGSLRLSCAASGRIFGFYAMGWYRQAPGKERELVAAISSRGGRTYYADSVKGRFTISRDNAKNTVYLQMNSLKPEDTAVYYCAAGDGKYGRDGDYWGQGTQVTVSS”, which “polyreactivity (PSR sort gate)” value is on record?
A: high polyreactivity

Q: Which “polyreactivity (PSR sort gate)” value does the source give for “QVQLVESGGGLVQAGGSLRLSCAASGRIFGFYAMGWYRQAPGKERELVARITLSGGRTYYADSVKGRFTISRDNAKNTVYLQMNSLKPEDTAVYYCAADSIGRLWGYGYWGQGTQVTVSS” here?
A: high polyreactivity

Q: Which “polyreactivity (PSR sort gate)” value does the source give for “QVQLVESGGGLVQAGGSLRLSCAASGRIFGFYAMGWYRQAPGKERELVAVISNGGGSTYYADSVKGRFTISRDNAKNTVYLQMTSLKPEDTAVYYCAVALKYPRRYYYWGQGTQVTVSS” here?
A: high polyreactivity

Q: Which “polyreactivity (PSR sort gate)” value does the source give for “QVQLVESGGGLVQAGGSLRLSCAASGRIFGFYARGWYRQAPGKEREFVADITSGGSTNYADSVKGRFTISRDNAKNTVYLQMNSLKPEDTAVYYCNALSYVWYRYPGNWDEDDYWGQGTQVTVSS” here?
A: low polyreactivity

Q: With “QVQLVESGGGLVQAGGSLRLSCAASGRIFGGYAMGWYRQAPGKERELVAAIDLSGGSTYYADSVKGRFTISRDNAKNTVYLQMNSLKPEDNAVYYCAADAYPVYYYLSTYDPWYDYWGQGTQVTVSS” as the sequence, how does the “polyreactivity (PSR sort gate)” value read?
A: low polyreactivity

Q: Which “polyreactivity (PSR sort gate)” value does the source give for “QVQLVESGGGLVQAGGSLRLSCAASGRIFGGYAMGWYRQAPGKERELVAAISGSGGRTYYADSVKGRFTISRDNAKNTVYLQMNSLKPEDTAVYYCNKGYVYGHEYWGQGTQVTVSS” here?
A: high polyreactivity

Q: For “QVQLVESGGGLVQAGGSLRLSCAASGRIFGGYAMGWYRQAPGKERELVAVISRGGSITDYADSVKGRFTISRDNAKNTVYLQMNSLKPEDTAVYYCAARICGGSYWGQGTQVTVSS”, which “polyreactivity (PSR sort gate)” value is on record?
A: high polyreactivity
